According to US20050277167A1, “Prolyl 3-hydroxylases” (priority 2004, published 2005):

How the values were obtained:
[1] = biological target: T1, [2,3-3H]-L-proline-labeled procollagen substrate (Gallus gallus, UniProt Q6JHU8); test: Prolyl 3-hydroxylase activity assay, release of tritiated water (THO) from labeled procollagen substrate; type: biochemical, chicken; settings: same Km expressed per ml reaction volume
T1 construct: Purified P3H1 from 15-day-old chick embryos was tested for its enzymatic activity using a labeled procollagen substrate; from tissue; host or cells: 15 day-old chick embryos: rER-enriched extract, gelatin-Sepharose, then 1C10 antibody column eluted at pH 2.5
T1 sequence (Q6JHU8 15-725): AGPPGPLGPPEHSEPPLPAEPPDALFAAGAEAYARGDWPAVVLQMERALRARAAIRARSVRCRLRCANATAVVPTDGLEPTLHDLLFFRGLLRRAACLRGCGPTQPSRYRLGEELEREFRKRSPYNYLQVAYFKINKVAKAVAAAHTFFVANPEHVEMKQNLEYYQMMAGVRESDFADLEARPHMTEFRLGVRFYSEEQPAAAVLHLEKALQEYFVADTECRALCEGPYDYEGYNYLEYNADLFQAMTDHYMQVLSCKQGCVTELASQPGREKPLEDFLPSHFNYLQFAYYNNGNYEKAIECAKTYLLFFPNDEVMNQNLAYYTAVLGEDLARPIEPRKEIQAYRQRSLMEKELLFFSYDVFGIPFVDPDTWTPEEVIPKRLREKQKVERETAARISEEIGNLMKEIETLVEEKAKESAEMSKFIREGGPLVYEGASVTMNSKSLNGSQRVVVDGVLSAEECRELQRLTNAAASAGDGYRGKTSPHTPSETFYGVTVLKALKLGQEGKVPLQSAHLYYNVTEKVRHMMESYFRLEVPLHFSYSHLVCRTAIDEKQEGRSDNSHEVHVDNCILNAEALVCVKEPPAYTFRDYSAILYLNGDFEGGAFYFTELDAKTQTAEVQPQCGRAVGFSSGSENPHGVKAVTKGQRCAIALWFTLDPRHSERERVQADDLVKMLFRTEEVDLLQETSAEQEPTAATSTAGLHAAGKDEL
Procedure: Prolyl 3-hydroxylase activity was measured based on the amount of tritiated water (THO) formed from a labeled procollagen substrate (Kivirikko et al. Matrix Biol, 16, 357-368 (1998); Risteli et al. Anal Biochem, 84, 423-431 (1978)) with the following modifications. [2,3-^3H]-L-Proline, 42 Ci/mmol, was purchased from Sigma.[2,3-^3H]-proline-labeled nonhydroxylated procollagen was prepared from the isolated cells of the leg tendons from 12 dozen 15 day-old chicken embryos (Berg et al., Biochemistry, 12, 3395-3401 (1973); Dehm et al. Biochim Biophys Acta, 264, 375-382 (1972); Kivirikko et al., Methods Enzymol, 82 Pt A, 245-304 (1982)). […]
The prolyl 3-hydroxylase reactions were performed as described previously (Kivirikko et al., 1982; Risteli et al., 1978; Tryggvason et al., 1976) but with the following modifications: the enzyme reaction was carried out for 60 minutes at 24° C. in a final volume of 2.0 mls containing 1×10^6 dpm [2,3-^3H]-L-proline-labeled substrate, 0.08 mM FeSO^4, 2 mM ascorbic acid, 0.5 mM 2-oxoglutarate, 0.2 mg/ml catalase, 2 mg/ml bovine serum albumin, 0.1 mM dithiothreitol, and 0.05 M Tris-HCl, pH 7.8. […] A 1.8 ml aliquot of the tritiated water was mixed with 10 mls Ecolume liquid scintillation cocktail (ICN) and counted in a Beckman LS5000TD liquid scintillation counter. […]

[2] = biological target: T2, (Pro-Pro-Gly)10 substrate (Gallus gallus, UniProt Q6JHU8); test: Prolyl 4-hydroxylase activity assay, hydroxylation-coupled decarboxylation of 2-oxo[1-14C]glutarate; type: biochemical; settings: purified P3H1 enzyme
T2 construct: Purified P3H1 from 15-day-old chick embryos was tested for its enzymatic activity using a labeled procollagen substrate; from tissue; host or cells: 15 day-old chick embryos: rER-enriched extract, gelatin-Sepharose, then 1C10 antibody column eluted at pH 2.5
T2 sequence (Q6JHU8 15-725): T1 sequence (Q6JHU8 15-725)
Procedure: The prolyl 4-hydroxylase activity was assayed by a method based on the hydroxylation-coupled decarboxylation of 2-oxo[1-^14C]glutarate (Kivirikko et al., 1982). The reaction was performed in a final volume of 1.0 ml, which contained 0.1 mg (Pro-Pro-Gly)10.9H^2O as substrate, 2 mM ascorbic acid, 0.05 mM FeSO^4, 0.1 mM dithiothreitol, 2 mg/ml bovine serum albumin, 0.1 mg/ml catalase, 50 mM Tris-HCl, pH 7.8, and 0.1 mM 2-oxo[1-^14C]glutarate (100,000 dpm). The reaction was stopped by the addition of 1 ml of 1 M KH2PO4, pH 5.0.

B1: P3H1: prolyl 3-hydroxylase 1 purified from 15-day-old chick embryos, chicken homologue of leprecan (protein)
chain: T1 sequence (Q6JHU8 15-725)
Km [1]: 89.5 μl of substrate per ml | prolyl 4-hydroxylase activity [2]: did not have any prolyl 4-hydroxylase activity
